Test results published in the supplement of paper PMC7125110.
± gives the standard error. This sample holds only a part of the variants without activity.

B1: glmS ribozyme (parent)
chain: AUAAAAGCGCCAGAACUACAGAAAUGUAGUUGACGAGGAGGAGGUUUAUCGAAUUUUCGGCGGAUGCCUCCAAA

Experiments:
Details in all cases: with glucosamine-6-phosphate
[1] = variants of: B1; experiment: self-cleavage kobs at 40 uM GlcN6P; higher = faster cleavage; RNA array
Procedure, shortened: (§1)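 Weighted Michaelis–Menten fits across concentrations supplied kcat and KM, based on kobs from one- or two-exponential decay fits to normalised per-tile medians. The data came from barcoded ribozyme variants transcribed in situ by E. coli RNA polymerase on sequenced MiSeq chips and tracked at 37 °C by a hybridised Cy3 probe. Glucosamine-6-phosphate (40 μM to 10 mM) in HEPES/KCl/Mg(OAc)2 buffer was flowed in.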

[2] = variants of: B1; experiment: self-cleavage kobs at 160 uM GlcN6P; higher = faster cleavage; RNA array
Procedure, shortened: as §1

[3] = variants of: B1; experiment: self-cleavage kobs at 10000 uM GlcN6P; higher = faster cleavage; RNA array
Procedure, shortened: as §1

[4] = variants of: B1; experiment: self-cleavage kobs at 640 uM GlcN6P; higher = faster cleavage; RNA array
Procedure, shortened: as §1

[5] = variants of: B1; experiment: self-cleavage kobs at 2500 uM GlcN6P; higher = faster cleavage; RNA array
Procedure, shortened: as §1

Variant	self-cleavage kobs at 40 uM GlcN6P [1]	self-cleavage kobs at 160 uM GlcN6P [2]	self-cleavage kobs at 10000 uM GlcN6P [3]	self-cleavage kobs at 640 uM GlcN6P [4]	self-cleavage kobs at 2500 uM GlcN6P [5]
G59C C61G	< 1e-05 s⁻¹	< 1e-05 s⁻¹	< 1e-05 s⁻¹		
A53G U65C	3.6e-05 ± 1.8e-05 s⁻¹		0.000644 ± 0.00014 s⁻¹	0.000302 ± 7.9e-05 s⁻¹	0.000224 ± 9.5e-05 s⁻¹
A48U C67U C70U	< 1e-05 s⁻¹				< 1e-05 s⁻¹
U49G A53U U56A C67A C70A	4.31e-05 ± 1.9e-05 s⁻¹				0.000146 ± 2.4e-05 s⁻¹
G51A A52C A53G	< 1e-05 s⁻¹				
A53C U57C	< 1e-05 s⁻¹		4.63e-05 ± 1.2e-05 s⁻¹		4.1e-05 ± 1.6e-05 s⁻¹
U49A G63C U69C	< 1e-05 s⁻¹				
U55A C68U	0.000668 ± 0.00012 s⁻¹	0.000841 ± 0.00019 s⁻¹	0.0158 ± 0.004 s⁻¹	0.00148 ± 0.00045 s⁻¹	0.00477 ± 0.00099 s⁻¹
U55C G63U	< 1e-05 s⁻¹				
C50U G51U	< 1e-05 s⁻¹		< 1e-05 s⁻¹		
A52C C71G	< 1e-05 s⁻¹			< 1e-05 s⁻¹	< 1e-05 s⁻¹
G59A U65G	< 1e-05 s⁻¹				
A48U G63U	< 1e-05 s⁻¹	< 1e-05 s⁻¹	< 1e-05 s⁻¹	< 1e-05 s⁻¹	< 1e-05 s⁻¹
A53G C71U	0.000921 ± 0.00014 s⁻¹	0.0017 ± 0.00029 s⁻¹	0.0402 ± 0.013 s⁻¹	0.00661 ± 0.0013 s⁻¹	
U56A U69C	0.000222 ± 5.9e-05 s⁻¹	0.000288 ± 6e-05 s⁻¹	0.00286 ± 0.00081 s⁻¹	0.000693 ± 0.00019 s⁻¹	0.000572 ± 0.00015 s⁻¹
A48U G60A	< 1e-05 s⁻¹	< 1e-05 s⁻¹	< 1e-05 s⁻¹	< 1e-05 s⁻¹	< 1e-05 s⁻¹
G51C A53U	< 1e-05 s⁻¹	< 1e-05 s⁻¹			< 1e-05 s⁻¹
G51C A53C	< 1e-05 s⁻¹			< 1e-05 s⁻¹	
C50G C61U A64G	0.000244 ± 8.5e-05 s⁻¹	8.89e-05 ± 3.2e-05 s⁻¹	4.62e-05 ± 1.7e-05 s⁻¹	0.000192 ± 8.3e-05 s⁻¹	
A53U G59U	< 1e-05 s⁻¹		4.13e-05 ± 7.7e-06 s⁻¹		
A52C G62U	< 1e-05 s⁻¹	< 1e-05 s⁻¹	< 1e-05 s⁻¹		
U57G C61U	< 1e-05 s⁻¹				
G51C C61A	< 1e-05 s⁻¹		< 1e-05 s⁻¹	< 1e-05 s⁻¹	< 1e-05 s⁻¹
